The results in this text go back to article PMC10580930.

In series [1] the test system is C[C@@H](O)[C@H]1C(=O)N2C(C(=O)O)=C(SCCN=CN)C[C@H]12. Description: purified protein. The conditions noted are these: phosphate-buffered solution (1x), 50 µM ZnSO4, room temperature.
Series [2] concerns C[C@@H](O)[C@H]1C(=O)N2C(C(=O)O)=C(S[C@@H]3CN[C@H](C(=O)N(C)C)C3)[C@H](C)[C@H]12. Description: purified protein. The conditions noted are these: phosphate-buffered solution (1x), 50 µM ZnSO4, room temperature.

The Km is the concentration of substrate that gives half-maximal velocity. For orientation: kcat means the maximal rate divided by the concentration of active sites. A word on the kcat/Km: it is the turnover number divided by the Michaelis constant. Regarding VIM-2 (Pseudomonas aeruginosa), in series [1], the Km stood at 10.31 µM, the kcat is 11.1 s⁻¹ and the kcat/Km worked out at 1.1e+06 M⁻¹ s⁻¹. Further, in series [2], the Km was 5.37 µM, the kcat came out at 2.1 s⁻¹ and the kcat/Km came out at 400000 M⁻¹ s⁻¹.
